One substance from article PMC3552336 can be followed below.

This assay concerns the target HA-p68 (wild type) (UniProt P17844).
Sequence of UniProt P17844 (P17844 whole entry): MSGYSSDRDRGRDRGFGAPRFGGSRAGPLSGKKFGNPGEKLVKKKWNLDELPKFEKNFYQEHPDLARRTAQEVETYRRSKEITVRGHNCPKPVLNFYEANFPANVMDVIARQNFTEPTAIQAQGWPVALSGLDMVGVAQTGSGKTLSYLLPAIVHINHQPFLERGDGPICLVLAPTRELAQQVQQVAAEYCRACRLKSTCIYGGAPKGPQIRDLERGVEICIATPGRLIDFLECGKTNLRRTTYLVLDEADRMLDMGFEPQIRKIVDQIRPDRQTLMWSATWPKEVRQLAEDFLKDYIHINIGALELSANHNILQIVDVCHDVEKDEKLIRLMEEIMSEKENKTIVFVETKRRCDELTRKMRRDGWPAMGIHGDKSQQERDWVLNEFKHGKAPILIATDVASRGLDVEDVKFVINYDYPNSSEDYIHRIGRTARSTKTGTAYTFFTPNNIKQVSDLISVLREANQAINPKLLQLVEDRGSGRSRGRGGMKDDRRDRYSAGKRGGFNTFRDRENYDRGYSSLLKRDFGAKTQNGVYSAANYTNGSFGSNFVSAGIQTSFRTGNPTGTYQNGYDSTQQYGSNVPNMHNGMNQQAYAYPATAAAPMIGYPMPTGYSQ

The substance “Rhodamine labeled microtubule (from UniProt P02550;P02554) (complex)” returned a microtubule gliding assay, p68/Ca^2+-CaM (ATP): % of gliding microtubules (n=50) of 74.2%; a microtubule gliding assay, p68/Ca^2+-CaM (ATP): maximum gliding speed of 0.52 µm/min; a microtubule gliding assay, p68/Ca^2+-CaM (ATP): mean gliding speed of 0.16 µm/min.
